Common to all, as to assay: fluorescence anisotropy; FA: 10 nM RNA, 50 mM sodium phosphate pH 8, 150 mM NaCl, 10 mM beta-mercaptoethanol, 20 C (protein stock in 300 mM NaCl); NMR: same buffer with 300 mM NaCl, 20
Common to all, as to details: protein: recombinant; tags: C-terminal His6; label: 5' fluorescein or TAMRA (FA); unlabeled (NMR)

One data set concerns the target T1, Nrd1 307-491 T340A (Saccharomyces cerevisiae, UniProt P53617 307-491, T340A).
T1 sequence: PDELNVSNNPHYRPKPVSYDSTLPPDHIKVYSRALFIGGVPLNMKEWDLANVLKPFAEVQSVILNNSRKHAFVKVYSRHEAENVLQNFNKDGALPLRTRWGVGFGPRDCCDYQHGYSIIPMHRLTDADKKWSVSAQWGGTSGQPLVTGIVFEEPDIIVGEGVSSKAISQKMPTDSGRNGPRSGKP

The target of another data set is T2, Nrd1 307-491 D417A (Saccharomyces cerevisiae, UniProt P53617 307-491, D417A).
T2 sequence: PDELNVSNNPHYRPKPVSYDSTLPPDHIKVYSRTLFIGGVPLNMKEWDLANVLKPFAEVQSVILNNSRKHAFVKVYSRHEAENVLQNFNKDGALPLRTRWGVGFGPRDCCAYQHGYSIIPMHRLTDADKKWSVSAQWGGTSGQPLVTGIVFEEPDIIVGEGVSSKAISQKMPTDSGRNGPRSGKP

Another data set concerns the target T3, Nrd1 307-491 G344A (Saccharomyces cerevisiae, UniProt P53617 307-491, G344A).
T3 sequence: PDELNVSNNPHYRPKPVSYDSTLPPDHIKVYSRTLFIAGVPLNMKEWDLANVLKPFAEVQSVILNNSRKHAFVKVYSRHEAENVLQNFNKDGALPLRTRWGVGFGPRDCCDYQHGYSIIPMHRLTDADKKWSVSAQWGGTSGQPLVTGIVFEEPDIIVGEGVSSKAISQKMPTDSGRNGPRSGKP

The next data set addresses T4, Nrd1 307-491 R405A (Saccharomyces cerevisiae, UniProt P53617 307-491, R405A).
T4 sequence: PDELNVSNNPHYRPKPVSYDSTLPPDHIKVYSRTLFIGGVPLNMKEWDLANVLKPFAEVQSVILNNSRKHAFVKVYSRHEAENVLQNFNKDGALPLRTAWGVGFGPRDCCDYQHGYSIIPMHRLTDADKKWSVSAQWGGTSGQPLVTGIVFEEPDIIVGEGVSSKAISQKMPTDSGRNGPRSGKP

For another data set, the target named is T5, Nrd1 307-491 H385A (Saccharomyces cerevisiae, UniProt P53617 307-491, H385A).
T5 sequence: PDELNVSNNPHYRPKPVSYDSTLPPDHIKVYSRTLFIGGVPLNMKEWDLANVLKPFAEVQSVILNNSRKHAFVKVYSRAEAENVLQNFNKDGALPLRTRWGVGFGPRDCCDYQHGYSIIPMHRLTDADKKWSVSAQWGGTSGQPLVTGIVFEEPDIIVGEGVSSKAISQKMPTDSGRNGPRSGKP

The target of the next data set is T6, Nrd1 307-491 G407A (Saccharomyces cerevisiae, UniProt P53617 307-491, G407A).
T6 sequence: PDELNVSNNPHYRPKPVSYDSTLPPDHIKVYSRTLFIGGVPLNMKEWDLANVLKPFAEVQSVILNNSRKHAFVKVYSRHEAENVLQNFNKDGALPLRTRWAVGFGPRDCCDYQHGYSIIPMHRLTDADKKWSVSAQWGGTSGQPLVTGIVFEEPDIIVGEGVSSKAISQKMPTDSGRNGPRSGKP

The target of a further data set is T7, Nrd1 307-491 G409A (Saccharomyces cerevisiae, UniProt P53617 307-491, G409A).
T7 sequence: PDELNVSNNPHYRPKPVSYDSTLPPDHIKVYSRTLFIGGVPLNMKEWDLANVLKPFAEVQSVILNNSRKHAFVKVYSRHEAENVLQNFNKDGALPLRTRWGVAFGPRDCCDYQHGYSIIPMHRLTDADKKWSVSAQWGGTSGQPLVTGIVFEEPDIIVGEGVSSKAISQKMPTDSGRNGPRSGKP

The next data set concerns the target T8, Nrd1 307-491 K435D (Saccharomyces cerevisiae, UniProt P53617 307-491, K435D).
T8 sequence: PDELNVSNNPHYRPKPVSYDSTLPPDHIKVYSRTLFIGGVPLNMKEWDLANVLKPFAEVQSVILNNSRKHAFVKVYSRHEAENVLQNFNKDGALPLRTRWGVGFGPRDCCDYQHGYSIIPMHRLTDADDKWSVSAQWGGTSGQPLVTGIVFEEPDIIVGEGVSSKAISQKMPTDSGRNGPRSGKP

B1: GUAA (ssRNA)
RNA: GUAA
On to B1, for which the Kd worked out at 153 ± 32.8 µM with Nrd1 307-491 T340A; 17.9 ± 2 µM with Nrd1 307-491 D417A; 80.8 ± 2.2 µM in the data set with Nrd1 307-491 G344A; 17.3 ± 0.9 µM in the data set with Nrd1 307-491 R405A; 10.3 ± 1.7 µM in the data set with Nrd1 307-491 H385A; 13.9 ± 1.7 µM with Nrd1 307-491 G407A. In addition, the Kd with Nrd1 307-491 G409A turned out to be 157 ± 7.7 µM; in the data set with Nrd1 307-491 K435D it was 16.2 ± 1.7 µM.

The values are drawn from paper PMC4081072, “Structure and semi-sequence-specific RNA binding of Nrd1”.
